{
  "source": "patent US20240147984A1",
  "about": "(SYNKLINO A S, published 2024)",
  "binders": {"B1": {"name": "SYN001 (other)", "chain": "MQHHGVTKCNITCSKMTSKIPVALLIHYQQNQASCGKRAIILETRQHRLACADPKEQWVKDAMQHLDRQAAALTRNRQPRGWEQLEQSGYPVQRLVALYLAARLSWNQVDQVIRNALASPGSGGDLGEAIREQPEQARLALTLAAAESERFVRQGTGNDEAGAASGPADSGDALLERNYPTGAEFLGDGGDISFSTRGTQNWTVERLLQAHRQLEERGYVFVGYHGTFLEAAQSIVFGGVRARSQDLDAIWRGFYIAGDPALAYGYAQDQEPDARGRIRNGALLRVYVPRSSLPGFYRTGLTLAAPEAAGEVERLIGHPLPLRLDAITGPEEEGGRLETILGWPLAERTVVIPSAIPTDPRNVGGDLDPSSIPDKEQAISALPDYASQPGKPPKDE"}},
  "assay_in_all_cases": "cell-based or functional assay",
  "key": {"[1]": {"biological_target": "T1, US28 (human cytomegalovirus, UniProt P69332 1-354)", "T1 sequence": "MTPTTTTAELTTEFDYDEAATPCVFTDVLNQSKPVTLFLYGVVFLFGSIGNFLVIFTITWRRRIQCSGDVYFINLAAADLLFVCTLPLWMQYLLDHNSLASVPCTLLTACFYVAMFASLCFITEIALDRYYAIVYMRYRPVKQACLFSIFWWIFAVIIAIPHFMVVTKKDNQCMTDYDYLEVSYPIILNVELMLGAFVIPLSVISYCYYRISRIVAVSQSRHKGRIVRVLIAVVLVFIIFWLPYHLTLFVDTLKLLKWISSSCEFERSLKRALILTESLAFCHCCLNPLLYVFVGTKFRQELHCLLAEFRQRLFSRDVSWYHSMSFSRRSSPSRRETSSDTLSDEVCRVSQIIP"}, "[2]": {"biological_target": "T1, US28", "remark": "listed apart in the source"}, "[3]": {"biological_target": "T2, CX3CR1 (human, UniProt P49238 1-355)", "T2 sequence": "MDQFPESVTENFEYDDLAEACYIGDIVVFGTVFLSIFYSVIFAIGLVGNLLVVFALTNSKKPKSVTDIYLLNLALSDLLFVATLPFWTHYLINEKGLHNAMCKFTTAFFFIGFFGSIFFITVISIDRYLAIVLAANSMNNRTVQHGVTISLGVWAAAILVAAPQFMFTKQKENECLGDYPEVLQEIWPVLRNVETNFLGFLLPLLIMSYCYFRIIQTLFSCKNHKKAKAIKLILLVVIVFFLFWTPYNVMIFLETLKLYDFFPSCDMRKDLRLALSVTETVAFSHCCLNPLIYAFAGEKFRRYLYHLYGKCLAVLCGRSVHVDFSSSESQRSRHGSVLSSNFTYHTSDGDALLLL"}},
  "data": [
    {"binder": "B1", "values": [
      {"measurement": "EC50 (log), potency assay; SYN001 1 mg/L, 0 min in perfusate at 37 C", "setting": "[1]", "result": "-9.95 log EC50; concentration unit not printed"},
      {"measurement": "EC50 (log), potency assay; SYN001 1 mg/L, 15 min in perfusate at 37 C", "setting": "[1]", "result": "-9.95 log EC50; concentration unit not printed"},
      {"measurement": "EC50 (log), potency assay; SYN001 1 mg/L, 180 min in perfusate at 37 C", "setting": "[1]", "result": "-10 log EC50; concentration unit not printed"},
      {"measurement": "EC50 (log), potency assay; SYN001 1 mg/L, 300 min in perfusate at 37 C", "setting": "[1]", "result": "-9.93 log EC50; concentration unit not printed"},
      {"measurement": "Log IC50, cell killing assay", "setting": "[2]", "result": "-10.7 log IC50; concentration unit not printed"},
      {"measurement": "Selectivity Ratio US28/CX3CR1 (cell killing IC50)", "setting": "[2]", "result": 718, "unit": "ratio"},
      {"measurement": "Log IC50, cell killing assay", "setting": "[3]", "result": "-7.82 log IC50; concentration unit not printed"}
    ]}
  ]
}
